Measured values taken from patent CN113150137A.

Target: 重组NDM-1蛋白 (新德里金属β-内酰胺酶, 肺炎克雷伯菌) (肺炎克雷伯菌 (Klebsiella pneumoniae)) (UniProt C7C422)
Test: indirect ELISA, NDM-1 coated at 100 ng/well, purified antibody diluted 1:10000 to 1:2560000, positive if the ratio to the negative control is >2.1

Sequence of UniProt C7C422 (C7C422 29-270 limits assumed): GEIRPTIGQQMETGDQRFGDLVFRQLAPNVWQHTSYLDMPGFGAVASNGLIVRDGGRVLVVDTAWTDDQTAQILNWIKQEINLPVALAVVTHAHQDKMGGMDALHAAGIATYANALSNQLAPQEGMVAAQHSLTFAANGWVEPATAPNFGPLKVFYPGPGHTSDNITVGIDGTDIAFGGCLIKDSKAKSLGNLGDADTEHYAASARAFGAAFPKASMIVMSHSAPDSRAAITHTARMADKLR

Binder | 效价 (ELISA titer, highest positive dilution) (fold dilution)
单克隆抗体7C10 (antibody, V domains shown) VH: QVQLQQPGAELVRPGASVRLSCKASGYTFTNYWMNWVKQRPGQGLEWIGSINPSDGYTKYNQKFKDKATLTVDKSSSTAYLQLSSPTSEDSAVYYCTRKKVNYDYAMDYWGQGTSVTVSS VL: DIVMSQSPSSLAVSVGEKVTMSCKSSQSLLYSSNQKNYLAWYQQKPGQSPKLLIYWASTRESGVPDRFTGSGSGTDFTLTISSVKAEDLAFYYCHQYYSYPYTFGGGTKLERK | 600000
单克隆抗体5B9 (antibody, V domains shown) VH: EVQLVESGGGLVKPGGSLKLSCAASGFTFSSYAMSWVRQSPEKRLEWVADISSGGSYTYYPDTVTGRFTISRDNAKNTLYLEMSSLGSEDTAMYYCAREYGGGFDYWGQGTTLTVSS VL: DIQMTQSPASLSASVGETVTITCRASGNIHNYLAWYQQKQGKSPQLLVYNAKTLADGVPSRFSGSGSGTQYSLKINSLQPEDFGSYYCQHFWSIPRTFGGGTKLEIK | 1e+06
单克隆抗体5G6 (antibody, V domains shown) VH: EVQLVESGGGLVKPGGSLKLSCAASGFTFSNYAMSWVRQSPEKRLEWVADISSGGSYTYYPDTVTGRFTISRDNAKNTLYLEMTSLRSEDTAMYYCAREYGGGFDYWGQGTTLTVSS VL: DIQMTQSPASLSASVGETVTITCRASGNIHNYLAWYQQKQGKSPQLLVYNAKTLADGVPSRFSGSGSGTQYSLKINSLQPEDFGNYYCQHFWSIPRTFGGGTKLEIK | 1e+06
